Reference: paper PMC11452509

Assays:
Assay in all cases: SPR
[1] = target: trastuzumab produced in CHO-gmt8 cells (human (detected with anti human IgG (H + L)))
[2] = target: trastuzumab produced in CHO-gmt21 cells (human (detected with anti human IgG (H + L)))
[3] = target: trastuzumab produced in CHO-gmt9 cells (human (detected with anti human IgG (H + L)))
[4] = target: trastuzumab produced in CHO-gmt13 cells (human (detected with anti human IgG (H + L)))
[5] = target: trastuzumab produced in CHO-K1 cells (human (detected with anti human IgG (H + L)))

Kd [1]: 200 nM
Kd [2]: 799 nM
Kd [3]: 80 nM
Kd [4]: 780 nM
Kd [5]: 560 nM
Substance: extracellular domain of human FcγRIIIa with a His-tag (from UniProt P08637 17-208) (receptor)
